# Assay results reported in PMC5356539.
# Several values for one entry are separate records, joined by “and”; a condition that tells them apart may be missing. Equal entries are not always repeated.
# What was measured:
# Assay in all cases: plate binding assay (luminescent)
# poly-ornithine = settings: miRNA species not given; 3'-biotinylated cytidine (bis)phosphate ligated; ELISA plate-immobilized protein, BSA block; PBS with or without 0.5 mM MgCl2, or HBSS with 1.26 mM Ca2+ and 0.9 mM Mg2+; neutral pH; 2 h at 37 C or overnight
# AGO2 full-length (human) = settings: Ca2+ and Mg2+; 3'-biotinylated cytidine (bis)phosphate ligated; ELISA plate-immobilized protein, BSA block; PBS with or without 0.5 mM MgCl2, or HBSS with 1.26 mM Ca2+ and 0.9 mM Mg2+; neutral pH; 2 h at 37 C or overnight …
# sNRP1 (human) = sNRP1 (human) (UniProt O14786); settings: 3'-biotinylated cytidine (bis)phosphate ligated, ELISA plate-immobilized protein, BSA block, PBS with or without 0.5 mM MgCl2, or HBSS with 1.26 mM Ca2+ and 0.9 mM Mg2+, neutral pH, 2 h at 37 C or overnight …
# NRP1-Fc (rat) = settings: 3'-biotinylated cytidine (bis)phosphate ligated; ELISA plate-immobilized protein, BSA block; PBS with or without 0.5 mM MgCl2, or HBSS with 1.26 mM Ca2+ and 0.9 mM Mg2+; neutral pH; 2 h at 37 C or overnight …
# Sequence of sNRP1 (human) (O14786 22-640): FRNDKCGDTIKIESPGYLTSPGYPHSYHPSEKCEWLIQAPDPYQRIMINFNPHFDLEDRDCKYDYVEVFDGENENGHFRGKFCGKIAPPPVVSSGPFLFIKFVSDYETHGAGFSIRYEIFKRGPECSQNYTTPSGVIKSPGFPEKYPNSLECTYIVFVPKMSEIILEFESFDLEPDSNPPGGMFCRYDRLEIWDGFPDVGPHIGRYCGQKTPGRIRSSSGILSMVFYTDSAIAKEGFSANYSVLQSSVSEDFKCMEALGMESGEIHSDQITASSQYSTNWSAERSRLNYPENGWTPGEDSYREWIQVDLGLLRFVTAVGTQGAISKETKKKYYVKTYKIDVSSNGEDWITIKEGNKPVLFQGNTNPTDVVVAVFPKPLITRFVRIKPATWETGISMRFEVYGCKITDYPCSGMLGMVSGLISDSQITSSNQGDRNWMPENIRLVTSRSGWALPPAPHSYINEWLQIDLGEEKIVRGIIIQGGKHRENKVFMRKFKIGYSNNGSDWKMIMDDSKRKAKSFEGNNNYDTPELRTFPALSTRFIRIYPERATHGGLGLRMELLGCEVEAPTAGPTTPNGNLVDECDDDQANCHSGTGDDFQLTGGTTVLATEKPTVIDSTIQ
substance,measurement,setting,value
miR-20a,Kd,poly-ornithine,6.67 nM
same,Kd,AGO2 full-length (human),7.27 nM
miR-138,Kd,"sNRP1 (human); 0.9 mM Mg2+, 1.2 mM Ca2+ (1.26 in Methods)",0.772 nM
same,Kd,sNRP1 (human),0.348 nM
miR-331,Kd,NRP1-Fc (rat),0.911 nM
miR-422,Kd,sNRP1 (human),0.344 nM and 0.138 nM
